Experimental data: the nanobody polyreactivity screen of Harvey et al. (2022)

Test: yeast display, Sf9 membrane polyspecificity reagent, FACS + sequencing; frameworks hold sequencing errors
Outline: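 Nanobodies came from a synthetic yeast display library in Saccharomyces cerevisiae BJ5465, induced with galactose for 36–48 hours and stained for 1 hour at 4 °C with 10% biotinylated, detergent-solubilized Sf9 membrane reagent. Cells were enriched on streptavidin microbeads and then FACS-sorted, with low and high (top ~1%) gates set on anti-HA fluorescence for expression and streptavidin fluorescence for reagent binding. Each polyreactivity label reflects the gate a clone came from. Genes were amplified by colony PCR, sequenced by MiSeq 2 × 250 and filtered by CDR length.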

Sequence	polyreactivity (PSR sort gate)
QVQLVESGGGLVQAGGSLRLICAASGFTYRGYAMGWYRQAPGKERELVAAISSSVGSTYYADAVKGRFTISRDNAKNTVYLQKISLKPEDTAVYYCAARKGYVIRYNYWGQGTQVTVSS	high polyreactivity
QVQLVESGGGLVQAGGSLRLSCAASGRIFSYNAMGWYRQAPGKERELVAAISYGGGRTYYADSVKGRFTISRDNAKNTVYLQMNSLKPEDTAVYYCAASQYRSPYPYRDYYTPDYDYWGQGTQVTVSS	high polyreactivity
QVQLVESGGGLVQAGGSLRLSCAASGRILSGYTMGGYRQAPGKERELVAAINWRGGTTYYADSVKGRFTISRDNAKHTVYLQMNSLKPEDTAVYYCDADYYYQAGFYYWGQGTQVTVSS	low polyreactivity
QVQLVESGGGLVQAGGSLRLSCAASGRTFYNYAMGWYRQAPGKERELVAAITRGGSTYYADSVKGRFTISRDNAQNTVYLQMNSLKPEDTAVYYCNAKYIKGRDWGQGTQVTVSS	high polyreactivity
QVQLVESGGGLVQAGGSLRLSCAASGRIFYHNAMGWYRQAPGKERELVAAITWSGGSTYYADSVKGRFTISRDNAKNTVYLQMNSLKPEDTAVYYCAAYFYGRSYGYDYWGQGTQVTVSS	high polyreactivity
QVQLVESGGRLVQAGGILRLSCAASGSTFSPYAKGRNRQAPGKERELVAGITSSGGDTYYADSVKGRFTISRDNAKNTVYLLMNSLKPEDTAVYYCAADWWVLGQLWFDYWGHGTQVTVSS	low polyreactivity
QDQLVESGGCLVQAGGSLRLSCAASGSTFDTNSMGWSRQAPGKERELVAAISGSGVRTYYADSVKGRFSISRDNAKITVYLQMNRLNPEDTAVYYCAARGSRRGTWYDYWGQCTQVTVSS	high polyreactivity
QVQLVESGGGLVQAGGSLRLSCAASGRTFPFNAMGWYRQPPGKERELVAVINSGGSTYYADSVKGRFTISRDNAKNTVYLQMNSLKPEDTAVYYCYVKRYLWFTDLLYDYWGQGTQVTVSS	high polyreactivity
QVQLVESGGGLVQAGGSLRLSCAASGRTFTGYVMGWYRQAPGKERELVAVIRYRGGGSYYADSVKGRFTISRDNAKNTVYLQMNSLKPEDTAVYYCARKRVYFGLWMYYWGHGTQVTVSS	high polyreactivity
QVQLVESGGGLVQAGGSLRLSCAASGSTFGPYVMGWYRQAPGKERELVAAISQSGGSTYYADSVKGRFTISRDNAKNTVYLQMNSLKPEDTAVYYCAAQTPYGMYYWGQGTQVTVSS	low polyreactivity
QVQLVESGGGLVQAGGSLRLSCAASGITFRRYTMGWYRQAPGKERELVASISSTGSTNYADSVKGRFTISRDNAKNTVYLQMNSLKPEDTAVYYCAARRPYPYVGYEYWGQGTQVTVSS	high polyreactivity
QVQLVESGGGLVQAGGSLRLSCDASGIIFKYNAMGWYRQAPGKERELVAAITRRGGITYYADSVKGRFTISRDNAKNTVYLQMNSLKPEDTAVYYCAADLVYYHYYPWFYYWGQGTQVTVSS	high polyreactivity
QVQLVESGGGLVQAGGSLRLSCAASGSIFFSYAMGWYIQAPGKERELVAAITSSVDSTYYADSVKGRFTISRDNAKNTVYLQMNSLKPEDTAVYYCAARYRSGYYRYDYWGQGTQVTVSS	low polyreactivity
QVQLVESGGGLVQAGGSLRLSCAASGITFLGNAMGWYRQAPGKERELVAAISASGGRTYYADSVKGRFTISRDNAKNTVYLQMNSLKPEDTPVYYCAAASKPWYYYWGQGTQVTVSS	high polyreactivity
QVQLVESGGGLVQAGGSLRLSCAASGSNFRRNAMGWYRQAPGKERELVAAISSNGGSTYYADSVKGRFTISRDNAKNTVYLQLNSLKPEDSAVYYCNALGRVRYSPRYGYDYWGQGTQVTVSS	high polyreactivity
QVQLVESGGGLVQAGGSLRLSCAASGSIFYVYGMGWYRQAPGKERELVARITDSGGSTSYADSVKGRFTISRDNAKNTVYLQMNSLKPEDTAVYYCAAYVRPWYNYWGQGTQVTVSS	low polyreactivity
QVQLVESGGGLVQAGGSLRLSCAASGSIYEYYVMGWYRHAPGKERELVAAISYSGDSTYYADSVKGRFTISRDNAKNTVYFQMNSLKPEDTAVYYCAAQYSRVIPPGYDYWGQGSQVTVSS	high polyreactivity
QVQLVESGGGLVQAGGSLRLSCAASGSTLVGNAMGWYRQAPGKEMELVAVISYRGGSTYYADSVKGRFTISRDNAKNTVYLQMNSLKPEDTAVYDCAARYYRNPVFVIMDYWGQGTQVTVSS	high polyreactivity
KVQLVESGGGLVQAGGSLRLSCAASGSIFGRYAMGWYIQAPGKERELVAGISSSGGRTYYADSVKGRFTISRDNAKNTVYLQMNSLKPEDTAVYYCAAVRSSWSYYYWGQGTQVTVSS	high polyreactivity
QVQLVESGVGLVHAGGSLRLSCAASGITFDHYTMGWYRQAPGKEREFVAAITGSGVRTYYADSVKVRFTISRDNAKNTVYLQMNSLKPEVTAVYYCAAVWRYTGKYWGQGTQVTISS	high polyreactivity
QVQLVESGGGLVQAGGSLRLSCAASGRIFRFYAIGAYRQAPGKERELVAVISTGGSTNYADSVKGRFTISRDNAKNTVYLQMNSLKPEDTAVYYCAKRKQSWGPGYSYYSSQYSMDYWGQGTLVTVSS	high polyreactivity

Sequence	polyreactivity (PSR sort gate)
QVQLVESGGGLVQAGGSLRLSCAASGRTFTANAMGWYRQAPGKERELVAAIRWRGGSTSYADSVKGRFTISRDNAKNTVYLQMNSLKPEDTAVYYCAAESRWRSSAGGYYYWGQGTQVTVSS	low polyreactivity
QVQLGESGGGLVQAGGSLRLSCAASGSIFGHYAMGWYRQAPGKERELVAAISWSGTSTYYADSVKGRFTISRDNAKNTVYFQMNTLKPEDTAVYYCNVVYRVVSPSGGGYWGQGTQVTVSS	high polyreactivity
QVQLVESGGGLVQAGGSLRLSCAASGSTFDYNTMGWYRQAPGKERELVAAINNSGGSTYYADSVKGRFTISRDNAKNTVYLQMNSLKPEDTAVYYCAAVSYRRHFGPYNYWGQGTQVTVSS	low polyreactivity
QVQLVESGGGLVQAGGSLRLSCAASGSTFYPNAMGWYRQAPGKERELVAAIDRGGSTSYADSVKGRFTISRDNAKNTVYLQMNSLKPEDTAVYYCAVARGGRRKYEYWGQGTQVTVSS	low polyreactivity
QVQLVESGGGLVQAGGSLRLSCAASGSIFYQNAMGWYRQAPGKERELVAAISSAGSTYYADSVKGRFTISRDNAKNTVYLQMNSLKPEDTAVYYCARRSSGELGYHIYDYWGQGTQVTVSS	low polyreactivity
QVQLVESGGGLVQAGGSLRLSCAASGITFKSNAMGWYRQAPGKERELVAAISRRASSTYYADSVKGRFTISRDNAKNTVYLQMNSLKPEDTAVYYCAARSTVLATVSYPFGRYYWGQGTQVTVSS	high polyreactivity
QVQLVESGGGLVQAGGSLRLSCAATGFIFFYYAMGWYRQAPGKERELFAVIDRSGGTTYYADSVKGRFTISRDNAKNTVYLQMNSLKPEDTAVYYCNADDFTYPSGWGFIYDYWGQGTQVTVSS	low polyreactivity
QVQLVESGGGLVQAGGSLRLSCAASGSTFRVNVMGLYRQAPGKERELVAAIDSGGSTYYADSVKGRFTISRDNAKNTVYLQMNSLKPEYTAVYYCNSRVDSPSPYDYWGQGTQVTVSS	low polyreactivity
QVQLVESGGGLVQAGGSLRLSCAASGRTFYLYAMGWYRQAPGKERELVADISWDGDSTYYADSVKGRFTISRDNAKNTVYLQMNSLKPEDTAVYYCAADYFYYYEQYLWYTYDYWGQGTQVTVSS	high polyreactivity
QVQLVESGGGLVQAGGSLRLSCAASGIIFLYYAMGWYRQAPGKEREFVAAISWSGGRTYYADSVKGRFTISRDNAKNTVYLQMNSLKPEDTAVYYCAATYALRKTGYDYWGQGTQVTVSS	high polyreactivity
QVLLVESGGGLVQAGGSLRVSCAASGLIFSRYTMGGYRQAPGKERELVAAISKTGSSTYYAVSVKGRFTISRDNAKNTVYLQMKSLKPEDTAVYYCATTPTGRKKGDYWGQGTQVTVSS	high polyreactivity
QVQLVESGGGLVQAGASLRLSCAASGITFVHYAMGWYRQAPWKEREFVAAITKGGGSTSYADSVKGRFTISRDNAKNTVYLQMNSLKPEDTAVDYCAKRYWGTKYGITARFDYWGQGTQVTVSS	high polyreactivity
QVQLVQSGGCLVQAGGSLRLSCAASGRIFGYYAIGWYRQAPGKERELVAGISRSGGSTYYADSVKWRFTISRDKAKNTVYLQMNSLKPEDTAVYYCAARFNGQTYYYWGQGTQGTVSS	high polyreactivity
QVQLVESGGGLVQAGGSLRLSCPASGSTIFGTAMGWYRQAPGKDWELVAASSYSGDSTYYADSVKGRFTISRDNAKHTVYVEMISLKPEDTAVYYCAAGFVIKYDYWGQGTQVTVSS	low polyreactivity
QVQLVESGGGLVQAGGSLRLSCAASGSIFYGNTMGWYRQEPGKERELVAPIRSVGRTYYADSVKGRYTISRDNAKNTVYLQMYSLKPEDTAVYYCAADPRSYFTSEYWGQGTQVTVSS	high polyreactivity
QIQLVESGGGLDQAGGSLRLSCAASGSNFVWNAMGWSRQAPGKERELVAAISYTDGSTYYADSVKGRFTISRDNAKNTVYLQMNSLKREDTAVYYCAAAITPSYTGSQYDYWGQGTQVTVSS	low polyreactivity
QVQLVESGGGLVQAGGSLRLSCAASGIIFYQYAMGRNRQAPGKERELVAAISSGVNTYYADSVKGRFTISRDNAKNTVYLQMNSLKPEDTAVYYCAAEKGRLYDWFDIYYIEYYYWGQGTQVTVSS	high polyreactivity
QVQLVESGGGLVQAGGSLRLSCAASGIIFYSYAMGWYRQAPGKERELVAAISWSGGSTYYADSVKGRFTISRDNAKNTVYLQMNSLKPEDTAVYYCAKDGYPYLSWLRSAHYDYWGQGTQVTVSS	low polyreactivity
QVQLVESGGGLVQAGGSLRLSCAASGSTFEVYAMGWYRQAPGKEREMVAAINSRGTSTYYADSVKGRFTISRDNEKNTVYIQMNSLKPEDTAVDFCAARHVYYSGYDYWGQGTQVTGSS	low polyreactivity
QVQLVDSGGGLVQAGGSLRLSCAASGRTFVPYAMGWYRQAPGKERELVAAISSGGDTNYADSVKGRFTISRDNAKNTVYLQMTSLKPEDTAVYYCNADSYYYVYGYDMGYWGQGTQVTVSS	low polyreactivity
